In PMC10377036, “Biological Recognition-Based Electrochemical Aptasensor for Point-of-Care Detection of cTnI”:

Target: cardiac troponin I (cTnI) (UniProt P19429 2-210)
Experiment: electrochemical aptasensor (CV, SWV); 50 ng/mL cTnI in CV feasibility test; electrode blocked with MCH; sensor LOD 8.46 pg/mL, linear range 10 pg/mL-100 ng/mL (not a Kd); SWV in PBS (0.01 M PB, 150 mM NaCl, pH 7.4); 10 uL cTnI incubated on electrode 10 min at room temperature
Details: protein: commercial; label: methylene blue; single strand

Chain of cardiac troponin I (cTnI) (P19429 2-210): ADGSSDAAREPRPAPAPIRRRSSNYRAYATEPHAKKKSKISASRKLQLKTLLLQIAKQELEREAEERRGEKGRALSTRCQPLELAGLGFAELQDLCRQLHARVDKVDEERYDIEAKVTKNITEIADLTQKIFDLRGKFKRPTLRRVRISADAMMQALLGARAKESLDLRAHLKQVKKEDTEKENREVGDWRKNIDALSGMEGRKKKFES

CGTGCAGTACGCCAACCTTTCTCATGCGCTGCCCCTCTTA (ssDNA, 5' thiol (SH); 3' methylene blue (MB)) [Apt (MB-Apt-SH)]: binds.
